The test system of this test is cultured cortical neurons. Kind of test: Firing properties of cultured cortical neurons in normal external solution. The following applies: absence of TTX and neurotransmitter receptor antagonists. It counts as cell-based, mouse.

B1: C-Ag20z0: C-Ag20 isoform having the z0 splice variant, SEQ. ID NO. 1 (protein)
chain: MDPRTYIEYLNAVTESEKALQSNHFELTLRTEATQGWLVLWIGKAAERADYMALAIVDGHLQLSYDLASQPVVLRSTVKVNTNRWLRVRAHREHREGSLQVGNEAPVTSSSPLGATQLDTDGALWLGGLQKLPVGQPLPKAYGTGFVGCLRNVVGHRQLHLLEDAVTKPELRPCPTLNSKLGPEQKLISEEDLNSAVDHHHHHH
modifications: Synthetically produced sequence
For B1, the “frequency of spontaneous action potentials” value is “significant and reversible increase”.

B2: C-Ag15: 15-kD COOH-terminal fragment of agrin created by deleting 37 amino acids from the NH2 terminus of C-Ag20, SEQ. ID NO. 3 (protein)
chain: MDPWIGKAAERADYMALAIVDGHLQLSYDLASQPVVLRSTVKVNTNRWLRVRAHREHREGSLQVGNEAPVTSSSPLGATQLDTDGALWLGGLQKLPVGQPLPKAYGTGFVGCLRNVVGHRQLHLLEDAVTKPELRPCPTLNSKLGPEQKLISEEDLNSAVDHHHHHH
modifications: Synthetically produced sequence
Consider B2, for which the “frequency of spontaneous action potentials” value is reported as “inhibited spontaneous activity”.

The values above are taken from patent US20100095387A1, “METHODS AND REAGENTS FOR SCREENING NEW DRUGS AND FOR TREATING ION PUMP ASSOCIATED DISORDERS AND DISEASES” (priority 2005, published 2010).
